Source: publication PMC12948190, “Microfluidic Electrochemical Biosensor for the Detection of Platelet Factor 4 Antibody‐Mediated Thrombotic Disorders” (Advanced Science, 2025)

Target: the molecule itself
Assay: cross-linking + AUC; PF4 cross-linked with 1 mg/mL EDC (equal v:v) in 15 mM MES pH 8.0, 6 h, ambient temperature, stopped with 1 M Tris pH 7.4; oligomeric species analysed by SDS-PAGE and ultracentrifugation

B1: cross-linked platelet factor 4 (natural protein, human, UniProt P02776 32-101, looked up)
chain: EAEEDGDLQCLCVKTTSQVRPRHITSLEVIKAGPHCPTAQLIATLKNGRKICLDLQAPLYKKIIKKLLES
modifications: chemically cross-linked with 1-ethyl-3-(3-dimethylaminopropyl) carbodiimide (EDC); cross-linked residues not stated
notes: Platelet factor 4 (PF4, CXCL4), human, recombinant; The bought recombinant protein is probably the mature 70-residue chemokine (surmised); also called c-PF4; cross-linked PF4; source: bought: Protein Foundry LLC (recombinant PF4, Human CXCL4); cross-linked with EDC
- stoichiometry N: 4
